Test: soluble on expression in E. coli; label from the status in PepcDB or PDB records

Sequence	soluble on expression in E. coli
MAQPYLPAEKFLSRKQETILLDEDEPAVVSSVRISPKKPYHVATTSSVRLTLYDTVVCEPLNLFSRFKKGVCSIDFRHDGRLLAIGGDEGKVRIFDVEKTTGSSKVALRVMQASQSTVKSVHFSPRGDTVFSMADDGKIKQYRVADTAYGVNAVPIIEIQAHEDAIRCGAVSSINDHIVLTGGYDHKVRLWDIRSKEKSLELDCEHPVESVLFLPGEQLIATAAGPIVKIWDTTTGRQLTALQAHYKTVTSLRLATNSTCLLSAGIDRRVNAFRTTNYSLINSWSMPSPVLDIDVSRDDQTMAIGMGNLLALYRRAEIKKEATASAAIEDKRSLIRTSAPPVKLVEKDRDMQKVDVVAKNADKLKIPKIDGMLSNFKHAAVIKLLFGGKFRSAMDTAVVSYLRVIVMRGAIHRALAGQERSVQKNILVFLNHNLYKAQYFSTLKEVVNAFFDVYALEKLDKDVVKHVQSLRGSLGRELEVQKMISSLIGSIDLIVSTTKMNVKSSSTALIEDNDVFGEPTIRARDLDELKPSDQGAEEEYEENMQIN	not soluble
MSLSENEQFSQMEAKARARMKERGVEVSDIAELVFFLQKKYHPDLTIDECTLNVNRVLAKREVQNAILTGIELDVLAEQKKLSEPLQTMLEIDESLYGVDEVLAFSIVNIYGSIGFTNYGYIDKEKPGILKRLNDKSTGECHTFLDDIVGAISAAASSRLAHRARHTEEGGSHHHHHH	soluble
GPGSMATGTSPPSLVTVPLLRAALLLRWRLLSLQFDGDSNMCVLAEDAADGLPRGTRLEMYGSNVQLVRQLSGAGEALLQPSVIGEVTATLEGALTDDTTERRGRQIVAVLSPPHLSSSLGGPEFKGNEDVEVIAQWTLSRKRVENVQRVTDTTKRDGVKNEEPPPLMENGIVFPSPRFAGLRVLRAARHSFALLLENELRERTGESEVGKVGPLAVLDVSELDCTFSRVAVQMAVERGLVLEQHMHVNFVPLTPAATATADETVRSLLRLVAHPTRGAHLDPLRPLQARCFKLGCCTFCSKGRGSAANEGSKKDEASLVSRLAGVISKIHSNGTLLVNLVGDGINHEELRQGAEMHLVEALLRADRCGVVIDEVLPAADTRGTAISFVVSLC	not soluble
PTSLEKLPSADVKGQDLYKTQPPRSDAQGGKAYLKWICITCGHIYDEALGDEAEGFTPGTRFEDIPDDWCCPDCGATKEDYVLYEEK	soluble
MSDMTDMLEDEMIDPVTGEIIDQKDLAERLLAQAKEQGVSLVGPGGLLNQLTKNVLETALNAELTEYLGHEHGETPLGSNMRNGPRTKTVLTVESGRFRSRSRGTVTGRSSR	not soluble
MMQTSTSSRVRRYPYQITLSLVLKGFYSPSAPSYDFCLVLLPTLFLIDLMPIKFSLHVTIGIGEATPVPIFFFSAPWYFRSGNPLPHCVRAYRCKVNFPFFRLGWSTWLHY	soluble
MCLIVFAWQPGHALPLLVAANRDEFYARPSLPLAAWEDAEGVFAGRDLEAGGTWLGLGPAGRFAALTNVRDPSQALGKRSRGELVADFLRGGGNPADYLAQVAGRAADYSGFNLLIGDRHQLWHYNPRVGPPRLLPAGIYGLSNAALDTPWPKLLKARAALAERLAEPHPQALLELLADAAPAADGQLPDTGVGLATERLLSSVFIASPSYGTRASSVVRVHADGTREMIERSFGPSGARLGEVSLVLPPGLEHHHHHH	not soluble
MFARDIGIDLGTANVLIHVKGKGIVLNEPSVVAIDRNTGKVLAVGEEARSMVGRTPGNIVAIRPLKDGVIADFEITEAMLKYFINKLDVKSFFSKPRILICCPTNITSVEQKAIREAAERSGGKTVFLEEEPKVAAVGAGMEIFQPSGNMVVDIGGGTTDIAVLSMGDIVTSSSIKMAGDKFDMEILNYIKRKYKLLIGERTSEDIKIKVGTVFPGARSEELEIRGRDMVTGLPRTITVCSEEITEALKENAAVIVQAAKGVLERTPPELSADIIDRGVILTGGGALLHGIDMLLAEELKVPVLIAENPMHCVAVGTGIMLENIDKLPRRALK	not soluble
MKITKLETVRVAERTNLLWVLVHTDEGITGLGETFFGAETVETYVHEYIAPRVIGRDPLQIDLLAQDLVGYLGFRSSGAEVRGNSAFDIALWDIFGKATNQPIAQLLGGFSRREIRTYNTCAGTEYIKKATGQQTANYGLSGGKDYDDLNGFLHRADELAHSLLEDGITAMKIWPFDAAAEKTRGQYISMPDLKSALEPFEKIRKAVGDKMDIMVEFHSMWQLLPAMQIAKALTPYQTFWHEDPIKMDSLSSLTRYAAVSPAPISASETLGSRWAFRDLLETGAAGVVMLDISWCGGLSEARKIASMAEAWHLPVAPHDCTGPVVLCASTHLSLNAPNALVQESVRAFYKTWYRDLVTALPEVKNGMITVPPGAGLGMELHPDIEKTFTVSRRFSDAASI	not soluble
MNLYRLLKQREADQKPLRVALIGAGKFGSMFLSQVQRTPGMRLVAVADLAPDRARAALTRVGWPAAALNADTIHHAVKTGKVYFSDDVRSVSVDPEVEIVIDATGQAAAGIEHVLTCCEYGKHII	not soluble
MKVGIVLNPHAGGGFDDLKRRVVVRVLKKLDGEFVTADKVAELLGIEAERVKVKETNTRLDTVNLVKALDGNVDVIAVFGGDGTVSDAASAKPQTPLLCIGIGTTNVSPALCPPDFDRLEEVEMRGLVVKFGGEERVAFNDVVVGSTILSTVDGKRVQVDARRYMRGEKVIATPRKFRARVEVGERVVEGVFGNIFVAMTDRRFLGKGIAGGASLSAFLGFKGVVACVSEGIVVSTYTKEDLRRVEPIVTSTISFDDEVVKIDADEVVSCDGNPLGVGRAEVAIEDGVVRVLKPFKEEE	soluble
MGSDKIHHHHHHMPNTFEHLQAAHCENGVTTNLLRNVGVSKMTEPLAFGIGSGLFFIYIPLMKINGGPAIAYRTMPGLIFKRTAQSLGIDVVRKTFRSTIKAQEFLDACIKAGQPVGCQVGVYFLSYFPKEYRFHFNAHNLIVYGKEGDNYLVSDPVMETTNILSTYELERVRFAKGALAPKGQIYFPKPNHEPVSDDKIRKAIVTGVKRNIRDMLHIPGPIAGVSGIKYTGNKIKNWRDKLGIEKAGLYLAQLVRMQEEIGTGGGGFRFIYGAFLQQAHAFHNDDQLLEISKSFTQSGDLWRSAAIQAAGIYKGRITSQADFNVMGDYLLEISELEKKAFKELTKIKWQK	not soluble
MCLVDFGLRFNHKGRHYFKAANGEDIALSLSIGAAMFNGHPDYERLIQIADEALYIAKRRGRNRVELCKASL	not soluble
MGSDKIHHHHHHAQIKFRNHSVSVVSLNYDASNKTMLFRQGEEMMEMTNPAQVDTVIIGKRKFVPVGRGFYEVVCRKEGVVYIDWLLKDVNIGSKGALGTVTQGSVKNLQMSDLGLNGTEMYTPYERQKIGSTEVYRRKNDNTYYIKVEGKLEKVKSLKHLEKIFIGHKDEIRKFAKDHKIDMKDILDVFSILDYCMELEQ	not soluble
MAHHHHHHMWYSNLFVAKLPRHLCDGDLLQIFSNFNPLGAKIMLDPSTGNSKGFGFVLFDKEEEGRTAYERLNRKLVRVCNSSFNLLIYPSQHNGKAVTLPSRAVYIRNIPTTMGEREVQNFLSNLAPLEYCAMRGDHHGNPVWVVYAEFDTPQNAQRVLDKLHGNSNHFGGPPIMVKYADTDEAKRERRRRREEGRLAPGPALKGACLFPPPRPGVVSLNQTQVSQSATETSPSCSPAAHHVTKTKMVAPMVEVEPRAQPLYFSTSPVTAMPPLLPVDMSYDGAAATVPLQTADCPAANGVLVLGNGQQVFLTPNAVNLHPTKFNAPPTALLVPAVDTTLVPLPPQRTLVYGPW	not soluble
MMHGGFAMIIDQYWGKYFGDSADSQRLAQYLAGKNREVLTTSEIFQDFQLAQLSGNYTQASLDGAGWHFDSAFQFVIDLAVLVLESKKVGRFSIARIGGPEDRFMRIDAATDELLPITMALKHYALAPEDYLFSHGIDVDDWYELGNLCEEIRAQLEA	not soluble
LSITDCRGAPLYEFRYPQQFYATFASVPPLLVHSLLFIENRDLLDPQQPLANPAVDWPRFVKAAWSQVAKMFALPGQSAGGSTLATQLEKYRHSPDGLTQSGSEKLRQMISASVRAYQPGAETLEVRQRVVRDYLNSVPLSAVPGHGEVHGLAEGLRVWFGVDFARTNQLLASGPTDQQGLADKALALREVLSLVIAQRRPSHYLAK	not soluble
MGSDKIHHHHHHMTDKGKNDLTSKAKDKARGNPEKPPYWFEIIVSDPQKRTGDPGSSSGYVSYQISTKTNNTSFYDNRGDPESIIVVHRRYSDLLLLHDILLNRFPTCIIPPLPDKKVFQYIAGDRFSQRFTQKRCHSLQNFLRRVSLHPDLSQSKVFKTFLVSKDWESHRKVLQDSLQPNKDEVTDAFMNAFKTVHKQNEEFTEIREKSDKLDRTVTKIDKLFHKVVKKNDSMSEDYTKLGSNLQELQELVTGENEELAAKLKIFNEGVTQLSYGLQDLTKYLDYEYIVDLKDLEHYIDSMRQLIKLKDQKQIDYEELSDYLTRSIKEKNNLISGYGGSNFFANKLEELAGINQEASRREKINKLEGKITSLTGELENAKKVADGFEQECLKEIDHFESVKTAEIKKSLGSLADHHIEFYERILEAWEKVDDSL	not soluble
MEEKFDVVIIGAGPAGLFAAYELVEKSNLKVLIIEEGGDVDQRVCPMYELGYCIGCKPCHIMSGVGGAGGLSDGTVNLRPDIGGDLTELTNDENYSWQLVWEVDQILLRHEAPRNLYKGDPEQIKYWERKAAQAGVKFIPIIQRHIGSDNTPKVIKSIKNYLEKKGVKFLLWTKALEFNKGWVKVRRGKDTFTINARYIIVAPGRGGADWFHEVAKKIGLKARHGPIDVGVRVEVPAIVMEPITSINHDPKFHIYTDTYDDFVRTFCTNPYGFVVEERYDNYVGVNGHSMREKKSNNTNFALLTRIELTEPVEDTTAYGKSIAQLATTIGGGKPIIQRLGDLRRGRRSTWSRIRKSDVEPTLKHVTPGDIAMALPHRVVTNIIEGLERLDKVIPGVASDHTLLYAPEIKYYAMRVEVNELLETNIENVFAAGDGAGLSRDIVNAAATGIMAARGILVKEGLYNLKDFKKPGNWKEKIENLEPEYLEHHHHHH	not soluble
GFGPHQRLEKLDSLLSDYDILSLSNIQQHSVRKRDLQTSTHVETLLTFSALKRHFKLYLTSSTERFSQNFKVVVVDGKNESEYTVKWQDFFTGHVVGEPDSRVLAHIRDDDVIIRINTDGAEYNIEPLWRFVNDTKDKRMLVYKSEDIKNVSRLQSPKVCGYLKVDNEELLPKGLVDREPPEGKT	not soluble
MKFPGQRKSKHYFPVHTRDPLVNQINQTPKLERTHLIGVGQTIVDIEAKVDDDFLNRHQLSKGHSLVLEESKAEALYKELFERNLISHEYPGDTIGNTLHNYSVLADSKSILLGVMSEDIKIGSYAYRYLCNTTSRMDLDYLQPVQGPIGRCYTLISEDGERTFAINEGDMNQLCPTHVPEHIFEKASALVISSYLVRGKEGDPMMDAVRKAIDCAKSHNVPVVLTLGTKYVIEGKAEWWQTFLKENVTVVAMNEEEAEALTGEKDPLLAADKALEWVDLVLCTAGPIGLYMAGFTEESIKRETSKPLLPGNIPEFNRFEYSRPMVKALCKKPIKVSSHIAPYMGGPVEIKNTNGAGDAALSALLHDMAANYYHKENVPNSSKHDAEYLTYSSFSQICKYSNRASYEVLTQHSPRLSKSMPEREDCLEEAYWER	not soluble
MSLNTRRLLDLSVTLDNNPYTDPPPLLPKIDYMDHQQGWPEMAAMFPGLRKEDLPGDESWAAERLQITTHSGTHMDAPWHYASTTDGGKPAFGIDELPLEWCLQPGVKLDFRHLPDGHVVTAAQVEAELARIGHELQPLDIVLVNTRAGSLFGQPGYLEAGVGMGREATLYLLERGVRVVGTDAWSWDAPFKFTRERFSETGDASIIWEGHKAGRDIGYGQMEKLANLEQLPADGFLVSCFPYKIRHASAGFVRAVAIFDLEHHHHHH	soluble
